B1: DbpAB31, recombinant histidine-tagged DbpA of B. burgdorferi strain B31 (natural protein)
chain: ATKIRLERSAKDITDEIDAIKKDAALKGVNFDAFKDKKTGSGVSENPFILEAKVRATTVAEKFVIAIEEEATKLKETGSSGEFSAMYDLMFEVSKPLQKLGIQEMTKTVSDAAEENPPTTAQGVLEIAKKMREKLQRVHTKNYCTLKKKENSTFTDEKCKNN

Legend:
[1] = target: Recombinant human decorin (human) (UniProt P07585); test: SPR; Biacore 3000; 10 µg biotinylated decorin on an SA chip; 0-500 nM DbpA injected at 10 µL/min, 25°C; control flow cell with PBS; 1:1 Langmuir model
[2] = target: Recombinant human decorin (human) (UniProt P07585); test: ELISA; quantitative ELISA; 1 µg decorin coated on microtiter wells; 0.03125-2 µM histidine-tagged DbpA added; detected with mouse anti-histidine tag and HRP anti-mouse IgG; KD from a fit of the curve
[3] = target: T1, Recombinant human decorin (human, UniProt P07585 31-359, biotin (biotinylated decorin on the SA chip in the SPR experiment; sites not stated)); test: as above; conditions: both partners purified
T1 construct: Decorin, human, recombinant; Decorin is a proteoglycan that carries dermatan sulfate; Secreted from CHO cells, so probably the mature protein (surmise); source: stably transfected Chinese hamster ovary cells (ATCC CCL 61), purified; gift from MedImmune

[4] = target: T1, Recombinant human decorin; test: SPR; Biacore 3000; 10 µg biotinylated decorin on an SA chip; 0-500 nM DbpA injected at 10 µL/min, 25°C; control flow cell with PBS; 1:1 Langmuir model; conditions: both partners purified

Chain of Recombinant human decorin (human) (P07585 31-359): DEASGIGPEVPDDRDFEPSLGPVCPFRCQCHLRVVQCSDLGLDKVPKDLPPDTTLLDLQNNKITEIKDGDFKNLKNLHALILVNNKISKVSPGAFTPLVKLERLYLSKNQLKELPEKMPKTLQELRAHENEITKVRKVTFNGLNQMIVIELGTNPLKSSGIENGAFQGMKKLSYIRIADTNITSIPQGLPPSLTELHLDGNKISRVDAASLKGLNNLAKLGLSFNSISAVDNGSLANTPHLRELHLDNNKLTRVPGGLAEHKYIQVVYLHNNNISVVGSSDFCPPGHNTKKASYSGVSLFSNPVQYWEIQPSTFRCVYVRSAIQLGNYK
T1 sequence (P07585 31-359): as above

Molecule | Kd [1] | koff [1] | kon [1] | Kd [2] | Kd [3] | Kd [4] | koff [4] | kon [4]
DbpA_(B356), recombinant histidine-tagged DbpA of B. burgdorferi strain B356 (natural protein) | 840 nM | 0.06 s⁻¹ | 66000 M⁻¹ s⁻¹ | 950 nM | – | – | – | –
DbpA297, recombinant histidine-tagged DbpA of B. burgdorferi strain 297 (from UniProt O50917 30-187) (natural protein) | 300 nM | 0.1 s⁻¹ | 351000 M⁻¹ s⁻¹ | 140 nM | – | – | – | –
DbpA_(VS461), recombinant histidine-tagged DbpA of B. afzelii strain VS461 (natural protein) | 260 nM | 0.04 s⁻¹ | 152000 M⁻¹ s⁻¹ | 290 nM | – | – | – | –
DbpAPBr, recombinant histidine-tagged DbpA of B. garinii strain PBr (natural protein) | 90 nM | 0.13 s⁻¹ | 1.83e+06 M⁻¹ s⁻¹ | 60 nM | – | – | – | –
DbpA_(N40-D10/E9), recombinant histidine-tagged DbpA of B. burgdorferi strain N40-D10/E9 (from UniProt O50917 30-191) (natural protein) | 710 nM | 0.07 s⁻¹ | 97000 M⁻¹ s⁻¹ | 850 nM | – | – | – | –
B1 | – | – | – | – | 210 nM | 280 nM | 0.11 s⁻¹ | 417000 M⁻¹ s⁻¹

From PMC4117581, “Strain-Specific Variation of the Decorin-Binding Adhesin DbpA Influences the Tissue Tropism of the Lyme Disease Spirochete” (PLoS Pathogens, 2014)
